From publication PMC10405849, “Soluble CD93 lectin-like domain sequesters HMGB1 to ameliorate inflammatory diseases” (Theranostics, 2023)

Target: T1, soluble recombinant human CD93 ectodomain protein rCD93D123 (Thr22-Lys580) (human, UniProt Q9NPY3 22-580)
T1 construct: CD93, human, ectodomain D1 (lectin-like domain) + D2 (five EGF-like repeats) + D3 (mucin-like domain), residues Thr22-Lys580; also called soluble rCD93; source: HEK293 cell protein expression system, purified (nickel-chelating Sepharose column)
T1 sequence (looked up): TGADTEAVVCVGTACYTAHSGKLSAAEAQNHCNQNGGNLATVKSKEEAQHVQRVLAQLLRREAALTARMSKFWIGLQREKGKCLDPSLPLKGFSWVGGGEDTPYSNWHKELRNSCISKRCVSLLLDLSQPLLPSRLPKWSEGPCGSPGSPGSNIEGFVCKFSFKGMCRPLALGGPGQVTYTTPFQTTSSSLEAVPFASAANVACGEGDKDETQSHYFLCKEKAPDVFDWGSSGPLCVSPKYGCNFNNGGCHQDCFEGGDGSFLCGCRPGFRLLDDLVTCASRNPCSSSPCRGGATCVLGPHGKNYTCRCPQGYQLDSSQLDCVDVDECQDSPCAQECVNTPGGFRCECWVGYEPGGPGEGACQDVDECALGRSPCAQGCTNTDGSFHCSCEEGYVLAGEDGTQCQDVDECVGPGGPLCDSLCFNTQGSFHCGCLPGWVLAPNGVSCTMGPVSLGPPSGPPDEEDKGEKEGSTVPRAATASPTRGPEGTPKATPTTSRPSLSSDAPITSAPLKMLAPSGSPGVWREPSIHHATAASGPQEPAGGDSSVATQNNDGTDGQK
Assay: co-IP; rCD93D123 (5 nM) and HMGB1 (5 nM) incubated 1 hour at 37 °C in 50 mM Tris-HCl, 100 mM NaCl, 0.25% Triton X-100, 1 mM MgCl2, 2 mM EGTA; precipitated with anti-HMGB1 antibody on protein A agarose overnight at 4 °C; blot with anti-c-Myc antibody
Conditions: both partners purified

B1: recombinant human high-mobility group box 1 (HMGB1) protein (natural protein, UniProt P09429 1-215, looked up)
chain: MGKGDPKKPRGKMSSYAFFVQTCREEHKKKHPDASVNFSEFSKKCSERWKTMSAKEKGKFEDMAKADKARYEREMKTYIPPKGETKKKFKDPNAPKRPPSAFFLFCSEYRPKIKGEHPGLSIGDVAKKLGEMWNNTAADDKQPYEKKAAKLKEKYEKDIAAYRAKGKPDAAKKGVVKAEKSKKKKEEEEDEEDEEDEEEEEDEEDEDEEEDDDDE
notes: High-mobility group box 1 protein, human, recombinant; No catalogue number is printed; source: bought: R&D Systems
B1: binds.
